# B1: LOXL2 (parent)
# chain: RLLRFSSQIHNNGQSDFRPKNGRH
# B2: AUP1 (parent)
# chain: EGLLRFSSWPFSIQDVVQPLTLQV
# Variants of: B1
# Assay: protein stability index of a GFP-peptide fusion (GPS, HEK-293T) (PSI 1-6); higher = more stable
# Settings: c terminus: a fixed tail appended
# 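Also: lentivirally expressed fusions sorted by FACS into six bins by GFP to DsRed ratio, PSI derived from sequencing read proportions per bin multiplied by bin number.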
row,Variant,protein stability index
1,RLMRFSSQIHNNGQSDFRPKNGRH,3.37
2,RLDRFSSQIHNNGQSDFRPKNGRH,3.98
3,RLSRFSSQIHNNGQSDFRPKNGRH,3.77
4,RLERFSSQIHNNGQSDFRPKNGRH,4.34
5,RLKRFSSQIHNNGQSDFRPKNGRH,3.84
6,RLPRFSSQIHNNGQSDFRPKNGRH,3.91
7,RLCRFSSQIHNNGQSDFRPKNGRH,2.88
8,RLFRFSSQIHNNGQSDFRPKNGRH,3.05
9,RLARFSSQIHNNGQSDFRPKNGRH,3.59
10,RLRRFSSQIHNNGQSDFRPKNGRH,3.81
11,RLTRFSSQIHNNGQSDFRPKNGRH,3.95
12,RLWRFSSQIHNNGQSDFRPKNGRH,2.64
13,RLHRFSSQIHNNGQSDFRPKNGRH,3.79
14,RLQRFSSQIHNNGQSDFRPKNGRH,3.99
15,RLYRFSSQIHNNGQSDFRPKNGRH,3.44
16,RLVRFSSQIHNNGQSDFRPKNGRH,3.44
17,RLIRFSSQIHNNGQSDFRPKNGRH,3.14
18,RLGRFSSQIHNNGQSDFRPKNGRH,3.63
19,RLNRFSSQIHNNGQSDFRPKNGRH,3.98
20,RLLEFSSQIHNNGQSDFRPKNGRH,2.87
21,RLLIFSSQIHNNGQSDFRPKNGRH,2.48
22,RLLHFSSQIHNNGQSDFRPKNGRH,2.74

row,Variant,protein stability index
1,RLLGFSSQIHNNGQSDFRPKNGRH,3.51
2,RLLDFSSQIHNNGQSDFRPKNGRH,3.16
3,RLLAFSSQIHNNGQSDFRPKNGRH,2.87
4,RLLCFSSQIHNNGQSDFRPKNGRH,2.87
5,RLLFFSSQIHNNGQSDFRPKNGRH,2.32
6,RLLKFSSQIHNNGQSDFRPKNGRH,2.27
7,RPLRFSSQIHNNGQSDFRPKNGRH,4.63
8,RQLRFSSQIHNNGQSDFRPKNGRH,4.12
9,RELRFSSQIHNNGQSDFRPKNGRH,3.98
10,RRLRFSSQIHNNGQSDFRPKNGRH,4.07
11,RWLRFSSQIHNNGQSDFRPKNGRH,2.71
12,RSLRFSSQIHNNGQSDFRPKNGRH,4.59
13,RALRFSSQIHNNGQSDFRPKNGRH,3.68
14,RILRFSSQIHNNGQSDFRPKNGRH,3.28
15,RYLRFSSQIHNNGQSDFRPKNGRH,3.35
16,RNLRFSSQIHNNGQSDFRPKNGRH,4.58
17,RCLRFSSQIHNNGQSDFRPKNGRH,3.82
18,RGLRFSSQIHNNGQSDFRPKNGRH,4.6
19,RFLRFSSQIHNNGQSDFRPKNGRH,2.82
20,RVLRFSSQIHNNGQSDFRPKNGRH,3.52
21,RHLRFSSQIHNNGQSDFRPKNGRH,4.21
22,RMLRFSSQIHNNGQSDFRPKNGRH,3.27

row,Variant,protein stability index
1,RTLRFSSQIHNNGQSDFRPKNGRH,4.69
2,RKLRFSSQIHNNGQSDFRPKNGRH,3.91
3,RDLRFSSQIHNNGQSDFRPKNGRH,4.51
4,LLLRFSSQIHNNGQSDFRPKNGRH,1.72
5,WLLRFSSQIHNNGQSDFRPKNGRH,1.65
6,GLLRFSSQIHNNGQSDFRPKNGRH,3.12
7,VLLRFSSQIHNNGQSDFRPKNGRH,1.89
8,PLLRFSSQIHNNGQSDFRPKNGRH,4.01
9,CLLRFSSQIHNNGQSDFRPKNGRH,2.78
10,HLLRFSSQIHNNGQSDFRPKNGRH,2.67
11,MLLRFSSQIHNNGQSDFRPKNGRH,2.66
12,KLLRFSSQIHNNGQSDFRPKNGRH,3.15
13,YLLRFSSQIHNNGQSDFRPKNGRH,1.71
14,SLLRFSSQIHNNGQSDFRPKNGRH,2.58
15,DLLRFSSQIHNNGQSDFRPKNGRH,2.97
16,ELLRFSSQIHNNGQSDFRPKNGRH,2.41
17,QLLRFSSQIHNNGQSDFRPKNGRH,2.48
18,TLLRFSSQIHNNGQSDFRPKNGRH,2.57
19,NLLRFSSQIHNNGQSDFRPKNGRH,2.65
20,FLLRFSSQIHNNGQSDFRPKNGRH,1.17
21,ILLRFSSQIHNNGQSDFRPKNGRH,1.78
22,ALLRFSSQIHNNGQSDFRPKNGRH,2.41

# Variants of: B2
# Assay: as above
# Settings: c terminus: a fixed tail appended
row,Variant,protein stability index
1,EGLLRFSSWPFSIQDVVAPLTLQV,2.25
2,EGLLRFSSWPFSIQDVVHPLTLQV,2.53
3,EGLLRFSSWPFSIQDVVEPLTLQV,2.6
4,EGLLRFSSWPFSIQDVVYPLTLQV,4.33
5,EGLLRFSSWPFSIQDVVQPLTLMV,3.98
6,EGLLRFSSWPFSIQDVVQPLTLYV,2.82
7,EGLLRFSSWPFSIQDVVQPLTLGV,1.4
8,EGLLRFSSWPFSIQDVVQPLTLAV,3.02
9,EGLLRFSSWPFSIQDVVQPLTLHV,1.98
10,EGLLRFSSWPFSIQDVVQPLTLKV,1.59
11,EGLLRFSSWPFSIQDVVQPLTLRV,2.91
12,EGLLRFSSWPFSIQDVVQPLTLPV,1.45
13,EGLLRFSSWPFSIQDVVQPLTLEV,2.65
14,EGLLRFSSWPFSIQDVVQPLTLSV,1.4
15,EGLLRFSSWPFSIQDVVQPLTLLV,3.58
16,EGLLRFSSWPFSIQDVVQPLTLDV,1.81
17,EGLLRFSSWPFSIQDVVQPLTLCV,1.61
18,EGLLRFSSWPFSIQDVVQPLTPQV,1.52
19,EGLLRFSSWPFSIQDVVQPLTYQV,2.16
20,EGLLRFSSWPFSIQDVVQPLTHQV,1.75
21,EGLLRFSSWPFSIQDVVQPLTQQV,2.11
22,EGLLRFSSWPFSIQDVVQPLTAQV,1.68
23,EGLLRFSSWPFSIQDVVQPLTNQV,1.27
24,EGLLRFSSWPFSIQDVVQPLTVQV,2.62
25,EGLLRFSSWPFSIQDVVQPLTSQV,1.85
26,EGLLRFSSWPFSIQDVVQPLTGQV,1.6
27,EGLLRFSSWPFSIQDVVQPLTEQV,2.15
28,EGLLRFSSWPFSIQDVVQPLTDQV,2.61
